Measured values reported in patent publication US20240309112A1 (MITSUBISHI TANABE PHARMA, published 2024).

Legend:
[1] = biological target: Human PAD4 (enzyme inhibition assays) (human, UniProt Q9UM07 1-663, limits assumed); assay: cell-based or functional assay
[2] = biological target: T1, biotin-labeled human PAD4 protein (human, UniProt Q9UM07 1-663, biotin on the Avi tag (biotin ligase BirA)); assay: SPR, Biacore T200, biotin-labeled human PAD4 captured on chip, IgG as analyte
T1 construct: also called Avi tag-human PAD4; biotin-labeled PAD4; not shown: Avi tag left on the N-terminal side after the GST tag was cleaved with PreScission Protease

[3] = biological target: T1, biotin-labeled human PAD4 protein; assay: SPR, Biacore T200, biotin-labeled human PAD4 captured on chip, antibody as analyte, single-cycle, 1:1 model
Method: A biotin-labeled human PAD4 protein was immobilized on a sensor chip using a Biotin Capture Kit (GE Healthcare). The PAD4 protein was prepared to 0.5 μg/mL using HBS-EP+ and used as a ligand solution. The ligand solution was added to a flow cell at a flow rate of 10 μL/min for 30 seconds, and then HBS-EP+ was added for 60 seconds. A flow cell to which no ligand solution was added was used as a reference cell. The test antibody was prepared from several hundred pM to several nM using HBS-EP+ and used as an analyte solution. Further, a running buffer solution was used as a blank solution. The blank solution or the analyte solution was added at a flow rate of 30 μL/min for 180 seconds using a single-cycle method, and a dissociation time was 1200 seconds. A sensorgram of the reference cell is subtracted from a sensorgram of the flow cell to which the ligand was added when the blank solution or the analyte solution was added, and further, a sensorgram to which the blank solution was added was subtracted from the sensorgram to which the analyte solution was added, and the result was used for analysis. Binding parameters were calculated using a 1:1 binding model using Biacore T200 Evaluation software (GE Healthcare). […] The dissociation constants of the antibodies 2-1-47, 3-1-39, 3-2-37, and 4-2-25 with improved complementarity determining regions with respect to human PAD4 protein were respectively 31, 48, 73, and 20 pM.

[4] = biological target: T2, human PAD4 (Cayman Chemical company, Cat 10500) (human, UniProt Q9UM07 1-663); assay: SPR, Biacore T200, antibody captured on Protein A chip, 50 nM human PAD4 as analyte; antigen binding amount divided by antibody binding amount
T2 construct: Bought protein
Method: In order to investigate an antigen-binding ability after the storage, antigen-binding activity measurements were performed using a surface plasmon resonance apparatus Biacore T200 (GE Healthcare). Cryopreserved test antibodies and test antibodies stored at 4° C. or 40° C. for 4 weeks were prepared to 10 μg/mL using a running buffer solution HBS-EP+. Using a Series S Sensorchip Protein A (GE Healthcare), a test antibody solution was added to a flow cell 2 at a flow rate of 10 μL/min for 60 seconds and immobilized on a sensor chip. A flow cell 1 was used as a reference cell. A binding amount 55 seconds after the completion of the addition of the test antibody to the flow cell 2 was subtracted from a binding amount of the flow cell 1 to obtain an antibody binding amount. Next, human PAD4 (Cayman Chemical company, Cat 10500) was prepared to 50 nM using HBS-EP+ and used as an analyte solution. The analyte solution was added at a flow rate of 30 μL/min for 120 seconds to obtain a sensorgram of a bound phase. A binding amount 5 seconds before the completion of the addition of the analyte solution to the flow cell 2 was subtracted from a binding amount of the flow cell 1 to obtain an antigen binding amount. Subsequently, a running buffer solution was added for 180 seconds to obtain a sensorgram of a dissociated phase. The measurements were performed at 25° C. The antibody binding amount and the antigen binding amount were calculated using a data analysis program (GE Healthcare, Biacore T200 Evaluation Software v3.1), and the antigen binding amount under each condition was divided by the antibody binding amount to obtain a relative antigen binding amount. There was no change between the relative antigen-binding amount of a cryopreserved test antibody and the relative antigen-binding amount of a test antibody stored at 4° C. The relative antigen-binding amounts of various test antibodies stored at 40° C. for 4 weeks were compared to the relative antigen-binding amounts of the test antibodies stored at 4° C. for 4 weeks, and the antigen-binding activities were determined.

[5] = biological target: T1, biotin-labeled human PAD4 protein; assay: SPR, Biacore T200, biotin-labeled human PAD4 captured on chip, antibody as analyte, single-cycle, 1:1 model; remark: listed apart in the source
Method: Binding affinities of the test antibodies G8 and G8ss with respect to human PAD4 proteins were determined by measuring a dissociation constant (KD) in HBS-EP+ using a surface plasmon resonance apparatus Biacore T200 (GE Healthcare). A biotin-labeled human PAD4 protein was immobilized on a sensor chip using a Biotin Capture Kit (GE Healthcare). The PAD4 protein was prepared to 0.25 μg/mL using HBS-EP+ and used as a ligand solution. The ligand solution was added to a flow cell at a flow rate of […] for 30 seconds, and then HBS-EP+ was added for 60 seconds. A flow cell to which no ligand solution was added was used as a reference cell. The test antibody was prepared from several hundred pM to several nM using HBS-EP+ and used as an analyte solution. Further, a running buffer solution was used as a blank solution. The blank solution or the analyte solution was added at a flow rate of 30 μL/min for 180 seconds using a single-cycle method, and a dissociation time was 1200 seconds. A sensorgram of the reference cell is subtracted from a sensorgram of the flow cell to which the ligand was added when the blank solution or the analyte solution was added, and further, a sensorgram to which the blank solution was added was subtracted from the sensorgram to which the analyte solution was added, and the result was used for analysis. Binding parameters were calculated using a 1:1 binding model using Biacore T200 Evaluation software (GE Healthcare).

T2 sequence (Q9UM07 whole entry): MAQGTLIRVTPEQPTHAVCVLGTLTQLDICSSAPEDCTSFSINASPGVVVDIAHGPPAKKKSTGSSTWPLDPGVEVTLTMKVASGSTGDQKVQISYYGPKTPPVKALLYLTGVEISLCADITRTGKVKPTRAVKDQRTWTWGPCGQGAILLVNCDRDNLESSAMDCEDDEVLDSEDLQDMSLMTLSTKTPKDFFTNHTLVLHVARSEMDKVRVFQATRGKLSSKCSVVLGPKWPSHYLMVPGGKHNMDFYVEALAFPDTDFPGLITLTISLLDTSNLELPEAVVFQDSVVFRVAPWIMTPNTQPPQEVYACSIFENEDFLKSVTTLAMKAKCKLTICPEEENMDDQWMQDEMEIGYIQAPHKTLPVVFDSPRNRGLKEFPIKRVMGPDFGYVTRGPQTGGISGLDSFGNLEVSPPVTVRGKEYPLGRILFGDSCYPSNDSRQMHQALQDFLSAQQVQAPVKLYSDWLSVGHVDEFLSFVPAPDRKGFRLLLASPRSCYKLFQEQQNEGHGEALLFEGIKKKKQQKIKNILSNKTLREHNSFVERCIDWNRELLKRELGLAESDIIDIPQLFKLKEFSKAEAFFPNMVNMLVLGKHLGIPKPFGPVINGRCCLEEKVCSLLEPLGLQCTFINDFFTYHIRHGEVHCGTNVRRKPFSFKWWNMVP
Chain of Human PAD4 (enzyme inhibition assays) (Q9UM07 whole entry): as above
T1 sequence (Q9UM07 whole entry): as above

B1: Lib2(4R)-1-47 (antibody, V domains shown)
VH: EVQLLESGGGLVQPGGSLRLSCAASGFTFSTYAMGWVRQAPGKGLEFVAAIRNDGSWTGYGTPYKTRFTISRDNSKNTLYLQMNSLRAEDTAVYYCAKYTGSSGGSIGAWGQGTLVTVSS
VL: SYELTQPPSVSVSPGQTARITCSGGNRNYYYGWYQQKPGQAPVTVIYANDKRPSGIPERFSGSNSGSTTTLTISGVQAEDEADYYCGTATTGKYVFGGGTKLTVLG
notes: Tested as full-length antibody (human IgG1/human k) from Expi293; also called Lib(4R)-1-47
In the case of B1, the “IC50, human PAD4 enzyme inhibitory activity (citrullination of BAEE, colorimetric)” value [1] is reported as 9.6 nM, the Kd [2] is reported as 0.0175 nM and the koff [2] is reported as 0.000164 s⁻¹. For the same binder, the kon [2] was 9.39e+06 M⁻¹ s⁻¹.

B2: anti-PAD4 antibody 2-1-47 (antibody, human IgG1, lambda, V domains shown)
VH: EVQLLESGGGLVQPGGSLRLSCAASGFTFSTYAMGWVRQAPGKGLEFVAAIRNDGSWTGYGTPYKTRFTISRDNSKNTLYLQMSSLRAEDTAVYYCAKYTGSSGGSIGAWGQGTLVTVSS
VL: SYELTQPPSVSVSPGQTARITCSGGNRNYYYGWYQQKPGQAPVTVIYANDKRPSGIPERFSGSNSGSTTTLTISGVQAEDEADYYCGTATTGKYVFGGGTKLTVLG
notes: Lib2(4R)-1-47 with the 84th asparagine of the heavy chain substituted with serine; full-length IgG from ExpiCHO
In the case of B2, the “IC50, human PAD4 enzyme inhibitory activity (citrullination of BAEE, colorimetric)” value [1] is reported as 12.2 nM, the Kd [3] is reported as 0.031 nM and the koff [3] is reported as 0.000507 s⁻¹. For the same binder, the kon [3] was 1.61e+07 M⁻¹ s⁻¹ and the “antigen-binding activity after storage at 40° C. for 4 weeks, relative to storage at 4° C.” value [4] was 95.6%.

B3: anti-PAD4 antibody 3-2-37 (antibody, human IgG1, lambda, V domains shown)
VH: EVQLLESGGGLVQPGGSLRLSCAASGFTFSTYAMGWVRQAPGKGLEFVAAIRNDGSWTGIGYNQKSRFTISRDNSKNTLYLQMSSLRAEDTAVYYCGKYTGSSGGSIGAWGQGTLVTVSS
VL: SYELTQPPSVSVSPGQTARITCSGGNRNYYYGWYQQKPGQAPVTVIYANDKRPSGIPERFSGSNSGSTTTLTISGVQAEDEADYYCGTALTGKYVFGGGTKLTVLG
notes: Lib1(6R)-2-37 with the 84th asparagine of the heavy chain substituted with serine; full-length IgG from ExpiCHO
With B3 the “IC50, human PAD4 enzyme inhibitory activity (citrullination of BAEE, colorimetric)” value [1] was 15.3 nM, the Kd [3] was 0.073 nM and the koff [3] was 0.000617 s⁻¹. The kon [3] was 8.51e+06 M⁻¹ s⁻¹ and the “antigen-binding activity after storage at 40° C. for 4 weeks, relative to storage at 4° C.” value [4] was 94.7%.

B4: Lib1(6R)-2-37 (antibody, human IgG1, lambda, V domains shown)
VH: EVQLLESGGGLVQPGGSLRLSCAASGFTFSTYAMGWVRQAPGKGLEFVAAIRNDGSWTGIGYNQKSRFTISRDNSKNTLYLQMNSLRAEDTAVYYCGKYTGSSGGSIGAWGQGTLVTVSS
VL: SYELTQPPSVSVSPGQTARITCSGGNRNYYYGWYQQKPGQAPVTVIYANDKRPSGIPERFSGSNSGSTTTLTISGVQAEDEADYYCGTALTGKYVFGGGTKLTVLG
notes: Tested as full-length antibody (human IgG1/human k) from Expi293
With B4 the “IC50, human PAD4 enzyme inhibitory activity (citrullination of BAEE, colorimetric)” value [1] was 13.4 nM, the Kd [2] was 0.0358 nM and the koff [2] was 0.000361 s⁻¹. It also gave a kon [2] of 1.01e+07 M⁻¹ s⁻¹.

B5: anti-PAD4 antibody 4-2-25 (antibody, human IgG1, lambda, V domains shown)
VH: EVQLLESGGGLVQPGGSLRLSCAASGFTFSTYAMGWVRQAPGKGLEFVAAIRNDGSWTGYPPPLKGRFTISRDNSKNTLYLQMSSLRAEDTAVYYCAKYTGSSGGSIGAWGQGTLVTVSS
VL: SYELTQPPSVSVSPGQTARITCSGGNRNYYYGWYQQKPGQAPVTVIYANDKRPSGIPERFSGSNSGSTTTLTISGVQAEDEADYYCGTAYTGKYVFGGGTKLTVLG
notes: Lib2(5R)-2-25 with the 84th asparagine of the heavy chain substituted with serine; full-length IgG from ExpiCHO
In the case of B5, the “IC50, human PAD4 enzyme inhibitory activity (citrullination of BAEE, colorimetric)” value [1] is reported as 7.6 nM, the Kd [3] is reported as 0.02 nM and the koff [3] is reported as 0.000299 s⁻¹. For the same binder, the kon [3] was 1.47e+07 M⁻¹ s⁻¹ and the “antigen-binding activity after storage at 40° C. for 4 weeks, relative to storage at 4° C.” value [4] was 97%.

B6: humanized anti-PAD4 antibody G8ss (antibody, human IgG1, lambda, V domains shown)
VH: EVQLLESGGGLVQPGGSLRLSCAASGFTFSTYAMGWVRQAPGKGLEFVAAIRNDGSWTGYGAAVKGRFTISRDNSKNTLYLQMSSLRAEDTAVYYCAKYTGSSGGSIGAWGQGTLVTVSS
VL: SYELTQPPSVSVSPGQTARITCSGGNRNYYYGWYQQKPGQAPVTVIYANDKRPSGIPERFSGSNSGSTTTLTISGVQAEDEADYYCGTADTGKYVFGGGTKLTVLG
notes: G8 with the 84th asparagine of the heavy chain substituted with serine; full-length IgG; also called test antibody G8ss
With B6 the “IC50, human PAD4 enzyme inhibitory activity (citrullination of BAEE, colorimetric)” value [1] was 20.3 nM, the Kd [3] was 0.199 nM and the koff [3] was 0.00122 s⁻¹. The kon [3] was 6.15e+06 M⁻¹ s⁻¹, the “antigen-binding activity after storage at 40° C. for 4 weeks, relative to storage at 4° C.” value [4] was 82.2% and the Kd [5] was 0.276 nM. The koff [5] was 0.00176 s⁻¹ and the kon [5] was 6.37e+06 M⁻¹ s⁻¹.

B7: Lib1(6R)-1-39 (antibody, human IgG1, lambda, V domains shown)
VH: EVQLLESGGGLVQPGGSLRLSCAASGFTFSTYAMGWVRQAPGKGLEFVAAIRNDGSWTGTSVNAKTRFTISRDNSKNTLYLQMNSLRAEDTAVYYCAKYTGSSGGSIGAWGQGTLVTVSS
VL: SYELTQPPSVSVSPGQTARITCSGGNRNYYYGWYQQKPGQAPVTVIYANDKRPSGIPERFSGSNSGSTTTLTISGVQAEDEADYYCGTATTGKYVFGGGTKLTVLG
notes: as for B4
With B7 the “IC50, human PAD4 enzyme inhibitory activity (citrullination of BAEE, colorimetric)” value [1] was 8.7 nM, the Kd [2] was 0.0183 nM and the koff [2] was 0.000108 s⁻¹. The kon [2] was 5.9e+06 M⁻¹ s⁻¹.

B8: anti-PAD4 antibody 3-1-39 (antibody, human IgG1, lambda, V domains shown)
VH: EVQLLESGGGLVQPGGSLRLSCAASGFTFSTYAMGWVRQAPGKGLEFVAAIRNDGSWTGTSVNAKTRFTISRDNSKNTLYLQMSSLRAEDTAVYYCAKYTGSSGGSIGAWGQGTLVTVSS
VL: SYELTQPPSVSVSPGQTARITCSGGNRNYYYGWYQQKPGQAPVTVIYANDKRPSGIPERFSGSNSGSTTTLTISGVQAEDEADYYCGTATTGKYVFGGGTKLTVLG
notes: Lib1(6R)-1-39 with the 84th asparagine of the heavy chain substituted with serine; full-length IgG from ExpiCHO
For B8, the “IC50, human PAD4 enzyme inhibitory activity (citrullination of BAEE, colorimetric)” value [1] was 8.8 nM, the Kd [3] was 0.048 nM and the koff [3] was 0.000626 s⁻¹. The kon [3] was 1.3e+07 M⁻¹ s⁻¹ and the “antigen-binding activity after storage at 40° C. for 4 weeks, relative to storage at 4° C.” value [4] was 93.9%.

B9: humanized anti-PAD4 antibody G8 (antibody, human IgG1, lambda, V domains shown)
VH: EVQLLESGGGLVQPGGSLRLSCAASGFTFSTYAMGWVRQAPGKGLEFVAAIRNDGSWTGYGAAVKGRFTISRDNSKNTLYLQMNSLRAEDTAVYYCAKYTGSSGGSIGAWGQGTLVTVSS
VL: SYELTQPPSVSVSPGQTARITCSGGNRNYYYGWYQQKPGQAPVTVIYANDKRPSGIPERFSGSNSGSTTTLTISGVQAEDEADYYCGTADTGKYVFGGGTKLTVLG
notes: Full-length IgG, described in WO 2016/143753; also called test antibody G8; parent clone G8
For B9, the “IC50, human PAD4 enzyme inhibitory activity (citrullination of BAEE, colorimetric)” value [1] was 21.6 nM, the Kd [2] was 0.208 nM and the koff [2] was 0.00146 s⁻¹. For the same binder, the kon [2] was 7.03e+06 M⁻¹ s⁻¹, the Kd [5] was 0.214 nM and the koff [5] was 0.00165 s⁻¹. The kon [5] was 7.7e+06 M⁻¹ s⁻¹.

B10: Lib2(5R)-2-25 (antibody, human IgG1, lambda, V domains shown)
VH: EVQLLESGGGLVQPGGSLRLSCAASGFTFSTYAMGWVRQAPGKGLEFVAAIRNDGSWTGYPPPLKGRFTISRDNSKNTLYLQMNSLRAEDTAVYYCAKYTGSSGGSIGAWGQGTLVTVSS
VL: SYELTQPPSVSVSPGQTARITCSGGNRNYYYGWYQQKPGQAPVTVIYANDKRPSGIPERFSGSNSGSTTTLTISGVQAEDEADYYCGTAYTGKYVFGGGTKLTVLG
notes: as for B4
B10 was tested, and the “IC50, human PAD4 enzyme inhibitory activity (citrullination of BAEE, colorimetric)” value [1] was 8.3 nM, the Kd [2] was 0.0158 nM and the koff [2] was 0.000202 s⁻¹. The kon [2] was 1.28e+07 M⁻¹ s⁻¹.
